Measurements from patent publication US20110104713A1, “PRODUCTS AND PROCESSES FOR MODULATING PEPTIDE-PEPTIDE BINDING DOMAIN INTERACTIONS” (priority 2002, published 2011).

Tests used:
[1] = target: T1, Plk-1 PBD (residues 326-603) (Homo sapiens, UniProt P53350); assay: Isothermal titration calorimetry of peptides with Plk-1 PBD; assay type: binding; details: ITC; no detectable binding for a Plk1 PBD concentration of at least 150 μM
T1 construct: sample cell containing 15 μM Plk-1 PBD (residues 326-603); GST (N, cleaved yes); made in house; host or cells: E. coli BL21
Method: For deletion mapping of the PBD, C-terminal fragments of Plk-1 were generated by PCR and cloned into the EcoRI and XhoI sites of pcDNA3.1 (Invitrogen). For production of recombinant PBD as a GST fusion in bacteria, the 326-603 fragment of Plk-1 was ligated into the EcoRI and XhoI sites of pGEX-4T (Pharmacia), transformed into BL21, and induced in late log-phase cells at 37° C. for 3.5 hours in the presence of 0.4 mM IPTG. For measurements of peptide binding affinity by ITC, GST-Plk-1 (326-603) was isolated from bacterial lysates using glutathione agarose, cleaved from GST using thrombin (10 U/mL), and purified by anion exchange chromatography (Q Sepharose HP, Pharmacia).
Peptides were synthesized by solid phase technique with two C-terminal lysines to enhance solubility, purified by reverse phase HPLC following deprotection, and confirmed by MALDI-TOF 9 Matrix-assisted laser desorption/ionisation-time of flight mass spectrometry. Some peptides contained an additional tyrosine residue to facilitate concentration determination by optical absorbance. calorimetry measurements were performed using a VP-ITC microcalorimeter (MicroCal Inc., Studio City, Calif.). Experiments involved 10 μL injections of peptide solutions (150 μM-180 μM) into a sample cell containing 15 μM Plk-1 PBD (residues 326-603) in 50 mM Tris/HCl (pH 8.1), 200 mM NaCl, 2 mM TCEP. Thirty injections were performed with a spacing of 240 s and a reference power of 25 μCal/s. Binding isotherms were plotted and analyzed using Origin Software (MicroCal Inc. Studio City, Calif.).
Peptides were synthesized by solid phase technique with two C-terminal lysines to enhance solubility. Some peptides contained an additional tyrosine residue to facilitate concentration determination by optical absorbance. Isothermal titration calorimetry was performed using a VP-ITC microcalorimeter (MicroCal Inc. Studio City, Calif.) by titration of 15-40 μM solutions of PBD proteins with 30×10 μl injections of […] peptide in a starting volume of 1.4-2.0 ml. Binding isotherms were plotted and analyzed using Origin Software (MicroCal Inc. Studio City, Calif.). Binding of in vitro translated Plk1 PBD (wild type and mutants) to bead-immobilized pTP and TP peptide libraries was performed as described previously (Elia et al., Science 299:1228-1231, 2003). pTP and TP indicate the peptide libraries biotin-Z-Gly-Z-Gly-Gly-Ala-X-X-B-X-pThr-Pro-X-X-X-X-Ala-Lys-Lys-Lys SEQ ID NO: 30 biotin-Z-Gly-Z-Gly-Gly-Ala-X-X-B-X-Thr-Pro-X-X-X-X-Ala-Lys-Lys-Lys SEQ ID NO: 31, respectively, where pThr is phosphothreonine, Z is aminohexanoic acid, X denotes all amino acids except Cys, and B is a biased mixture of the amino acids P, L, I, V, F, M, W.

[2] = test system: centrosomal localization of GST-Plk-1 PBD in U2OS cells; assay: Centrosomal localization of GST-Plk-1 PBD in permeabilized U2OS cells with peptide competition; assay type: cell-based, human; details: 250 μM peptide; nocodazole-arrested, Streptolysin-O permeabilized U2OS cells
Method: U2OS cells were cultured in 8-well chamber slides and arrested at G2/M by treatment with nocodazole (50 ng/mL) for 14 hours. After rinsing with PBS, cells were incubated with 4 μM GST-Plk-1 PBD (residues 326-603) and Streptolysin-O (1 U/ml) in permeabilization buffer (25 mM HEPES (pH 7.9), 100 mM KCl, 3 mM NaCl, 200 mM sucrose, 20 mM NaF, 1 mM NaOVO4) for 20 minutes at 37° C. Cells were fixed in 3% paraformaldehyde/2% sucrose for 10 minutes at room temperature and extracted with a 0.5% Triton X-100 solution containing 20 mM Tris-HCl (pH 7.4), 50 mM NaCl, 300 mM sucrose, and 3 mM MgCl2 for 10 minutes at RT. […] Cells were examined using a Nikon Eclipse E600 fluorescence microscope equipped with a SPOT RTcamera and software (Diagnostic Instruments, Livingston, Scotland). Images were analyzed using NIH Image. […]
The normalized intensity of centrosome-specific Alexa Fluor 488 staining (N.I.AF488) or Texas Red staining (N.I.TR) above background was defined as ([Icentrosome−1cell]/Icell) where Icentrosome indicates the fluorescence intensity of either Alexa-Fluor 488 or Texas Red averaged over the centrosome and Icell indicates the overall fluorescence intensity averaged over the entire cell. The relative GST-PBD/γ-tubulin specific staining was then calculated as N.I.AF488/NITR.

T1 sequence (P53350 326-603): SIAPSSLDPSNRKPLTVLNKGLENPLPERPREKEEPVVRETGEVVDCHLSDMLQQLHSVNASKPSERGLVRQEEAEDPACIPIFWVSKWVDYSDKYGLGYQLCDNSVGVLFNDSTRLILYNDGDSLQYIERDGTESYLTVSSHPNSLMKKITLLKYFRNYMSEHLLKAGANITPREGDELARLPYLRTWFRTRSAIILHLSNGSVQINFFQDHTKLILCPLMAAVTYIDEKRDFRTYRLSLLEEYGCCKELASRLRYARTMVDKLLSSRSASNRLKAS

With “MAGPMQ-S-T-P-LNGAKK (MAGPMQSTPLNGAKK) [PoloBoxtide-8T]” the “peptide binding to Plk-1 PBD by ITC (in words)” value [1] was “complete loss of binding” and the “effect of peptide on centrosomal localization of Plk-1 PBD” value [2] was “unaffected”.
